# From paper PMC10540216, “Activity Guided Azide-methyllysine Photo-trapping for Substrate Profiling of Lysine Demethylases” (Journal of the American Chemical Society, 2023)
# B1: NU107_HUMAN (protein, UniProt P57740 1-925, looked up)
# Nuclear pore complex protein …: MDRSGFGEISSPVIREAEVTRTARKQSAQKRVLLQASQDENFGNTTPRNQVIPRTPSSFRQPFTPTSRSLLRQPDISCILGTGGKSPRLTQSSGFFGNLSMVTNLDDSNWAAAFSSQRSGLFTNTEPHSITEDVTISAVMLREDDPGEAASMSMFSDFLQSFLKHSSSTVFDLVEEYENICGSQVNILSKIVSRATPGLQKFSKTASMLWLLQQEMVTWRLLASLYRDRIQSALEEESVFAVTAVNASEKTVVEALFQRDSLVRQSQLVVDWLESIAKDEIGEFSDNIEFYAKSVYWENTLHTLKQRQLTSYVGSVRPLVTELDPDAPIRQKMPLDDLDREDEVRLLKYLFTLIRAGMTEEAQRLCKRCGQAWRAATLEGWKLYHDPNVNGGTELEPVEGNPYRRIWKISCWRMAEDELFNRYERAIYAALSGNLKQLLPVCDTWEDTVWAYFRVMVDSLVEQEIQTSVATLDETEELPREYLGANWTLEKVFEELQATDKKRVLEENQEHYHIVQKFLILGDIDGLMDEFSKWLSKSRNNLPGHLLRFMTHLILFFRTLGLQTKEEVSIEVLKTYIQLLIREKHTNLIAFYTCHLPQDLAVAQYALFLESVTEFEQRHHCLELAKEADLDVATITKTVVENIRKKDNGEFSHHDLAPALDTGTTEEDRLKIDVIDWLVFDPAQRAEALKQGNAIMRKFLASKKHEAAKEVFVKIPQDSIAEIYNQCEEQGMESPLPAEDDNAIREHLCIRAYLEAHETFNEWFKHMNSVPQKPALIPQPTFTEKVAHEHKEKKYEMDFGIWKGHLDALTADVKEKMYNVLLFVDGGWMVDVREDAKEDHERTHQMVLLRKLCLPMLCFLLHTILHSTGQYQECLQLADMVSSERHKLYLVFSKEELRKLLQKLRESSLMLLDQGLDPLGYEIQL
# B2: ODP2_HUMAN (protein, UniProt P10515 87-647, looked up)
# Dihydrolipoyllysine-residue …: SLPPHQKVPLPSLSPTMQAGTIARWEKKEGDKINEGDLIAEVETDKATVGFESLEECYMAKILVAEGTRDVPIGAIICITVGKPEDIEAFKNYTLDSSAAPTPQAAPAPTPAATASPPTPSAQAPGSSYPPHMQVLLPALSPTMTMGTVQRWEKKVGEKLSEGDLLAEIETDKATIGFEVQEEGYLAKILVPEGTRDVPLGTPLCIIVEKEADISAFADYRPTEVTDLKPQVPPPTPPPVAAVPPTPQPLAPTPSAPCPATPAGPKGRVFVSPLAKKLAVEKGIDLTQVKGTGPDGRITKKDIDSFVPSKVAPAPAAVVPPTGPGMAPVPTGVFTDIPISNIRRVIAQRLMQSKQTIPHYYLSIDVNMGEVLLVRKELNKILEGRSKISVNDFIIKASALACLKVPEANSSWMDTVIRQNHVVDVSVAVSTPAGLITPIVFNAHIKGVETIANDVVSLATKAREGKLQPHEFQGGTFTISNLGMFGIKNFSAIINPPQACILAIGASEDKLVPADNEKGFDVASMMSVTLSCDHRVVDGAVGAQWLAEFRKYLEKPITMLL
# B3: ILF3_HUMAN (protein, UniProt Q12906 1-894, looked up)
# Interleukin enhancer-binding …: MRPMRIFVNDDRHVMAKHSSVYPTQEELEAVQNMVSHTERALKAVSDWIDEQEKGSSEQAESDNMDVPPEDDSKEGAGEQKTEHMTRTLRGVMRVGLVAKGLLLKGDLDLELVLLCKEKPTTALLDKVADNLAIQLAAVTEDKYEILQSVDDAAIVIKNTKEPPLSLTIHLTSPVVREEMEKVLAGETLSVNDPPDVLDRQKCLAALASLRHAKWFQARANGLKSCVIVIRVLRDLCTRVPTWGPLRGWPLELLCEKSIGTANRPMGAGEALRRVLECLASGIVMPDGSGIYDPCEKEATDAIGHLDRQQREDITQSAQHALRLAAFGQLHKVLGMDPLPSKMPKKPKNENPVDYTVQIPPSTTYAITPMKRPMEEDGEEKSPSKKKKKIQKKEEKAEPPQAMNALMRLNQLKPGLQYKLVSQTGPVHAPIFTMSVEVDGNSFEASGPSKKTAKLHVAVKVLQDMGLPTGAEGRDSSKGEDSAEETEAKPAVVAPAPVVEAVSTPSAAFPSDATAEQGPILTKHGKNPVMELNEKRRGLKYELISETGGSHDKRFVMEVEVDGQKFQGAGSNKKVAKAYAALAALEKLFPDTPLALDANKKKRAPVPVRGGPKFAAKPHNPGFGMGGPMHNEVPPPPNLRGRGRGGSIRGRGRGRGFGGANHGGYMNAGAGYGSYGYGGNSATAGYSQFYSNGGHSGNASGGGGGGGGGSSGYGSYYQGDNYNSPVPPKHAGKKQPHGGQQKPSYGSGYQSHQGQQQSYNQSPYSNYGPPQGKQKGYNHGQGSYSYSNSYNSPGGGGGSDYNYESKFNYSGSGGRSGGNSYGSGGASYNPGSHGGYGGGSGGGSSYQGKQGGYSQSNYNSPGSGQNYSGPPSSYQSSQGGYGRNADHSMNYQYR
# B4: P66A_HUMAN (protein, UniProt Q86YP4 1-633, looked up)
# Transcriptional repressor …: MTEEACRTRSQKRALERDPTEDDVESKKIKMERGLLASDLNTDGDMRVTPEPGAGPTQGLLRATEATAMAMGRGEGLVGDGPVDMRTSHSDMKSERRPPSPDVIVLSDNEQPSSPRVNGLTTVALKETSTEALMKSSPEERERMIKQLKEELRLEEAKLVLLKKLRQSQIQKEATAQKPTGSVGSTVTTPPPLVRGTQNIPAGKPSLQTSSARMPGSVIPPPLVRGGQQASSKLGPQASSQVVMPPLVRGAQQIHSIRQHSSTGPPPLLLAPRASVPSVQIQGQRIIQQGLIRVANVPNTSLLVNIPQPTPASLKGTTATSAQANSTPTSVASVVTSAESPASRQAAAKLALRKQLEKTLLEIPPPKPPAPEMNFLPSAANNEFIYLVGLEEVVQNLLETQGRMSAATVLSREPYMCAQCKTDFTCRWREEKSGAIMCENCMTTNQKKALKVEHTSRLKAAFVKALQQEQEIEQRLLQQGTAPAQAKAEPTAAPHPVLKQVIKPRRKLAFRSGEARDWSNGAVLQASSQLSRGSATTPRGVLHTFSPSPKLQNSASATALVSRTGRHSERTVSAGKGSATSNWKKTPLSTGGTLAFVSPSLAVHKSSSAVDRQREYLLDMIPPRSIPQSATWK
# B5: SATB2_HUMAN (protein, UniProt Q9UPW6 1-733, looked up)
# DNA-binding protein SATB2: MERRSESPCLRDSPDRRSGSPDVKGPPPVKVARLEQNGSPMGARGRPNGAVAKAVGGLMIPVFCVVEQLDGSLEYDNREEHAEFVLVRKDVLFSQLVETALLALGYSHSSAAQAQGIIKLGRWNPLPLSYVTDAPDATVADMLQDVYHVVTLKIQLQSCSKLEDLPAEQWNHATVRNALKELLKEMNQSTLAKECPLSQSMISSIVNSTYYANVSATKCQEFGRWYKKYKKIKVERVERENLSDYCVLGQRPMHLPNMNQLASLGKTNEQSPHSQIHHSTPIRNQVPALQPIMSPGLLSPQLSPQLVRQQIAMAHLINQQIAVSRLLAHQHPQAINQQFLNHPPIPRAVKPEPTNSSVEVSPDIYQQVRDELKRASVSQAVFARVAFNRTQGLLSEILRKEEDPRTASQSLLVNLRAMQNFLNLPEVERDRIYQDERERSMNPNVSMVSSASSSPSSSRTPQAKTSTPTTDLPIKVDGANINITAAIYDEIQQEMKRAKVSQALFAKVAANKSQGWLCELLRWKENPSPENRTLWENLCTIRRFLNLPQHERDVIYEEESRHHHSERMQHVVQLPPEPVQVLHRQQSQPAKESSPPREEAPPPPPPTEDSCAKKPRSRTKISLEALGILQSFIHDVGLYPDQEAIHTLSAQLDLPKHTIIKFFQNQRYHVKHHGKLKEHLGSAVDVAEYKDEELLTESEENDSEEGSEEMYKVEAEEENADKSKAAPAEIDQR
# B6: SYG_HUMAN (protein, UniProt P41250 37-739, looked up)
# Glycine--tRNA ligase: SAASCPPISLPAAASRSSMDGAGAEEVLAPLRLAVRQQGDLVRKLKEDKAPQVDVDKAVAELKARKRVLEAKELALQPKDDIVDRAKMEDTLKRRFFYDQAFAIYGGVSGLYDFGPVGCALKNNIIQTWRQHFIQEEQILEIDCTMLTPEPVLKTSGHVDKFADFMVKDVKNGECFRADHLLKAHLQKLMSDKKCSVEKKSEMESVLAQLDNYGQQELADLFVNYNVKSPITGNDLSPPVSFNLMFKTFIGPGGNMPGYLRPETAQGIFLNFKRLLEFNQGKLPFAAAQIGNSFRNEISPRSGLIRVREFTMAEIEHFVDPSEKDHPKFQNVADLHLYLYSAKAQVSGQSARKMRLGDAVEQGVINNTVLGYFIGRIYLYLTKVGISPDKLRFRQHMENEMAHYACDCWDAESKTSYGWIEIVGCADRSCYDLSCHARATKVPLVAEKPLKEPKTVNVVQFEPSKGAIGKAYKKDAKLVMEYLAICDECYITEMEMLLNEKGEFTIETEGKTFQLTKDMINVKRFQKTLYVEEVVPNVIEPSFGLGRIMYTVFEHTFHVREGDEQRTFFSFPAVVAPFKCSVLPLSQNQEFMPFVKELSEALTRHGVSHKVDDSSGSIGRRYARTDEIGVAFGVTIDFDTVNKTPHTATLRDRDSMRQIRAEISELPSIVQDLANGNITWADVEARYPLFEGQETGKKETIEE
# B7: LMNB2_HUMAN (protein, UniProt Q03252 1-617, looked up)
# Lamin-B2: MSPPSPGRRREQRRPRAAATMATPLPGRAGGPATPLSPTRLSRLQEKEELRELNDRLAHYIDRVRALELENDRLLLKISEKEEVTTREVSGIKALYESELADARRVLDETARERARLQIEIGKLRAELDEVNKSAKKREGELTVAQGRVKDLESLFHRSEVELAAALSDKRGLESDVAELRAQLAKAEDGHAVAKKQLEKETLMRVDLENRCQSLQEELDFRKSVFEEEVRETRRRHERRLVEVDSSRQQEYDFKMAQALEELRSQHDEQVRLYKLELEQTYQAKLDSAKLSSDQNDKAASAAREELKEARMRLESLSYQLSGLQKQASAAEDRIRELEEAMAGERDKFRKMLDAKEQEMTEMRDVMQQQLAEYQELLDVKLALDMEINAYRKLLEGEEERLKLSPSPSSRVTVSRATSSSSGSLSATGRLGRSKRKRLEVEEPLGSGPSVLGTGTGGSGGFHLAQQASASGSVSIEEIDLEGKFVQLKNNSDKDQSLGNWRIKRQVLEGEEIAYKFTPKYILRAGQMVTVWAAGAGVAHSPPSTLVWKGQSSWGTGESFRTVLVNADGEEVAMRTVKKSSVMRENENGEEEEEEAEFGEEDLFHQQGDPRTTSRGC
# B8: CSTF3_HUMAN (protein, UniProt Q12996 2-717, looked up)
# Cleavage stimulation factor …: SGDGATEQAAEYVPEKVKKAEKKLEENPYDLDAWSILIREAQNQPIDKARKTYERLVAQFPSSGRFWKLYIEAEIKAKNYDKVEKLFQRCLMKVLHIDLWKCYLSYVRETKGKLPSYKEKMAQAYDFALDKIGMEIMSYQIWVDYINFLKGVEAVGSYAENQRITAVRRVYQRGCVNPMINIEQLWRDYNKYEEGINIHLAKKMIEDRSRDYMNARRVAKEYETVMKGLDRNAPSVPPQNTPQEAQQVDMWKKYIQWEKSNPLRTEDQTLITKRVMFAYEQCLLVLGHHPDIWYEAAQYLEQSSKLLAEKGDMNNAKLFSDEAANIYERAISTLLKKNMLLYFAYADYEESRMKYEKVHSIYNRLLAIEDIDPTLVYIQYMKFARRAEGIKSGRMIFKKAREDTRTRHHVYVTAALMEYYCSKDKSVAFKIFELGLKKYGDIPEYVLAYIDYLSHLNEDNNTRVLFERVLTSGSLPPEKSGEIWARFLAFESNIGDLASILKVEKRRFTAFKEEYEGKETALLVDRYKFMDLYPCSASELKALGYKDVSRAKLAAIIPDPVVAPSIVPVLKDEVDRKPEYPKPDTQQMIPFQPRHLAPPGLHPVPGGVFPVPPAAVVLMKLLPPPICFQGPFVQVDELMEIFRRCKIPNTVEEAVRIITGGAPELAVEGNGPVESNAVLTKAVKRPNEDSDEDEEKGAVVPPVHDIYRARQQKRIR
# Test system: KDM4A-I71AzF
# Test: CASI: photo-crosslinking with HEK293T cell extracts, StrepTactin enrichment and LC-MS/MS proteomics;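 further: lysates from HEK293T cells pretreated with a KDM4 inhibitor to raise proteome methylation, affinity-purified after ±UV, gel-resolved, trypsin-digested, with exclusive unique peptides per protein averaged per condition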
# Assay type: binding, human
# Conditions: sheet "Final results but with 0.01"
row,Molecule,Fold change (+UV/-UV)
1,B1,2
2,B2,1
3,B3,0.5
4,B4,1.5
5,B5,1
6,B6,1
7,B7,0.5
8,B8,0
